B1: Cyclin-dependent kinase 4 inhibitor C (Homo sapiens), P42773 (parent)
chain: MAEPWGNELASAAARGDLEQLTSLLQNNVNVNAQNGFGRTALQVMKLGNPEIARRLLLRGANPDLKDRTGFAVIHDAARAGFLDTLQTLLEFQADVNIEDNEGNLPLHLAAKEGHLRVVEFLVKHTASNVGHRNHKGDTACDLARLYGRNEVVSLMQANGAGGATNLQ

Variants of B1 are the subject of this assay. To be noted: with cdk6_human CDK6, Q00534.
cdk6_human CDK6, Q00534, sequence (Q00534 whole entry): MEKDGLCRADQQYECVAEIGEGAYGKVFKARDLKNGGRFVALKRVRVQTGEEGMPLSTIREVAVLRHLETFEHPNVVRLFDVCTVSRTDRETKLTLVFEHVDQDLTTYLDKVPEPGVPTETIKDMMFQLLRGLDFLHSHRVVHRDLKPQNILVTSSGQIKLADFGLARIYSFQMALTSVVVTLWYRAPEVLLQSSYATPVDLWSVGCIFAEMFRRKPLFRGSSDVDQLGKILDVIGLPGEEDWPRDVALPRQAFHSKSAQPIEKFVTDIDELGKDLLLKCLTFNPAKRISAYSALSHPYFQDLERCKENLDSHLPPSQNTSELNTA
A72P: the “effect of a mutation on the interaction” value is listed as “disrupting interaction”.

Source of the values: IntAct's records for PubMed 8840966.
